15 molecules from patent US20110118447A1 can be followed below.

The chains are these.
B1: C5A (XPA23) VL A51W (antibody, V domains shown)
VH: EVQLLESGGGLVQPGGSLRLSCAASGFTFSKYFMFWVRQAPGKGLEWVSVISPSGGMTRYADSVKGRFTISRDNSKNTLYLQMNSLRAEDTAVYYCARVGYGGNSDYWGQGTLVTVSS
VL: DIQMTQSPSSVSASVGDRLTIICRASQDINRWLAWYQQTPGNAPKLLIHSWTSLQSGVPSRFSGSGSGTDFTLTINSLQPEDFATYYCQQADSFPLTFGGGTKVEIK
B2: C5A (XPA23) VL S53V (antibody, V domains shown)
VH: EVQLLESGGGLVQPGGSLRLSCAASGFTFSKYFMFWVRQAPGKGLEWVSVISPSGGMTRYADSVKGRFTISRDNSKNTLYLQMNSLRAEDTAVYYCARVGYGGNSDYWGQGTLVTVSS
VL: DIQMTQSPSSVSASVGDRLTIICRASQDINRWLAWYQQTPGNAPKLLIHSATVLQSGVPSRFSGSGSGTDFTLTINSLQPEDFATYYCQQADSFPLTFGGGTKVEIK
B3: C5A (XPA23) VL S53L (antibody, V domains shown)
VH: EVQLLESGGGLVQPGGSLRLSCAASGFTFSKYFMFWVRQAPGKGLEWVSVISPSGGMTRYADSVKGRFTISRDNSKNTLYLQMNSLRAEDTAVYYCARVGYGGNSDYWGQGTLVTVSS
VL: DIQMTQSPSSVSASVGDRLTIICRASQDINRWLAWYQQTPGNAPKLLIHSATLLQSGVPSRFSGSGSGTDFTLTINSLQPEDFATYYCQQADSFPLTFGGGTKVEIK
B4: C5A (XPA23) VL S53F (antibody, V domains shown)
VH: EVQLLESGGGLVQPGGSLRLSCAASGFTFSKYFMFWVRQAPGKGLEWVSVISPSGGMTRYADSVKGRFTISRDNSKNTLYLQMNSLRAEDTAVYYCARVGYGGNSDYWGQGTLVTVSS
VL: DIQMTQSPSSVSASVGDRLTIICRASQDINRWLAWYQQTPGNAPKLLIHSATFLQSGVPSRFSGSGSGTDFTLTINSLQPEDFATYYCQQADSFPLTFGGGTKVEIK
B5: C5A (XPA23) VL S53A (antibody, V domains shown)
VH: EVQLLESGGGLVQPGGSLRLSCAASGFTFSKYFMFWVRQAPGKGLEWVSVISPSGGMTRYADSVKGRFTISRDNSKNTLYLQMNSLRAEDTAVYYCARVGYGGNSDYWGQGTLVTVSS
VL: DIQMTQSPSSVSASVGDRLTIICRASQDINRWLAWYQQTPGNAPKLLIHSATALQSGVPSRFSGSGSGTDFTLTINSLQPEDFATYYCQQADSFPLTFGGGTKVEIK
B6: C5A (XPA23) VL S53G (antibody, V domains shown)
VH: EVQLLESGGGLVQPGGSLRLSCAASGFTFSKYFMFWVRQAPGKGLEWVSVISPSGGMTRYADSVKGRFTISRDNSKNTLYLQMNSLRAEDTAVYYCARVGYGGNSDYWGQGTLVTVSS
VL: DIQMTQSPSSVSASVGDRLTIICRASQDINRWLAWYQQTPGNAPKLLIHSATGLQSGVPSRFSGSGSGTDFTLTINSLQPEDFATYYCQQADSFPLTFGGGTKVEIK
B7: C5A (XPA23) VL T52V (antibody, V domains shown)
VH: EVQLLESGGGLVQPGGSLRLSCAASGFTFSKYFMFWVRQAPGKGLEWVSVISPSGGMTRYADSVKGRFTISRDNSKNTLYLQMNSLRAEDTAVYYCARVGYGGNSDYWGQGTLVTVSS
VL: DIQMTQSPSSVSASVGDRLTIICRASQDINRWLAWYQQTPGNAPKLLIHSAVSLQSGVPSRFSGSGSGTDFTLTINSLQPEDFATYYCQQADSFPLTFGGGTKVEIK
B8: C5A (XPA23) VL A51P (antibody, V domains shown)
VH: EVQLLESGGGLVQPGGSLRLSCAASGFTFSKYFMFWVRQAPGKGLEWVSVISPSGGMTRYADSVKGRFTISRDNSKNTLYLQMNSLRAEDTAVYYCARVGYGGNSDYWGQGTLVTVSS
VL: DIQMTQSPSSVSASVGDRLTIICRASQDINRWLAWYQQTPGNAPKLLIHSPTSLQSGVPSRFSGSGSGTDFTLTINSLQPEDFATYYCQQADSFPLTFGGGTKVEIK
B9: C5A (XPA23) VL T52F (antibody, V domains shown)
VH: EVQLLESGGGLVQPGGSLRLSCAASGFTFSKYFMFWVRQAPGKGLEWVSVISPSGGMTRYADSVKGRFTISRDNSKNTLYLQMNSLRAEDTAVYYCARVGYGGNSDYWGQGTLVTVSS
VL: DIQMTQSPSSVSASVGDRLTIICRASQDINRWLAWYQQTPGNAPKLLIHSAFSLQSGVPSRFSGSGSGTDFTLTINSLQPEDFATYYCQQADSFPLTFGGGTKVEIK
B10: C5A (XPA23) VL T52A (antibody, V domains shown)
VH: EVQLLESGGGLVQPGGSLRLSCAASGFTFSKYFMFWVRQAPGKGLEWVSVISPSGGMTRYADSVKGRFTISRDNSKNTLYLQMNSLRAEDTAVYYCARVGYGGNSDYWGQGTLVTVSS
VL: DIQMTQSPSSVSASVGDRLTIICRASQDINRWLAWYQQTPGNAPKLLIHSAASLQSGVPSRFSGSGSGTDFTLTINSLQPEDFATYYCQQADSFPLTFGGGTKVEIK
B11: C5A (XPA23) VL T52W (antibody, V domains shown)
VH: EVQLLESGGGLVQPGGSLRLSCAASGFTFSKYFMFWVRQAPGKGLEWVSVISPSGGMTRYADSVKGRFTISRDNSKNTLYLQMNSLRAEDTAVYYCARVGYGGNSDYWGQGTLVTVSS
VL: DIQMTQSPSSVSASVGDRLTIICRASQDINRWLAWYQQTPGNAPKLLIHSAWSLQSGVPSRFSGSGSGTDFTLTINSLQPEDFATYYCQQADSFPLTFGGGTKVEIK
B12: C5A (XPA23) VL T52P (antibody, V domains shown)
VH: EVQLLESGGGLVQPGGSLRLSCAASGFTFSKYFMFWVRQAPGKGLEWVSVISPSGGMTRYADSVKGRFTISRDNSKNTLYLQMNSLRAEDTAVYYCARVGYGGNSDYWGQGTLVTVSS
VL: DIQMTQSPSSVSASVGDRLTIICRASQDINRWLAWYQQTPGNAPKLLIHSAPSLQSGVPSRFSGSGSGTDFTLTINSLQPEDFATYYCQQADSFPLTFGGGTKVEIK
B13: C5A (XPA23) VL T52I (antibody, V domains shown)
VH: EVQLLESGGGLVQPGGSLRLSCAASGFTFSKYFMFWVRQAPGKGLEWVSVISPSGGMTRYADSVKGRFTISRDNSKNTLYLQMNSLRAEDTAVYYCARVGYGGNSDYWGQGTLVTVSS
VL: DIQMTQSPSSVSASVGDRLTIICRASQDINRWLAWYQQTPGNAPKLLIHSAISLQSGVPSRFSGSGSGTDFTLTINSLQPEDFATYYCQQADSFPLTFGGGTKVEIK
B14: C5A (XPA23) VL T52L (antibody, V domains shown)
VH: EVQLLESGGGLVQPGGSLRLSCAASGFTFSKYFMFWVRQAPGKGLEWVSVISPSGGMTRYADSVKGRFTISRDNSKNTLYLQMNSLRAEDTAVYYCARVGYGGNSDYWGQGTLVTVSS
VL: DIQMTQSPSSVSASVGDRLTIICRASQDINRWLAWYQQTPGNAPKLLIHSALSLQSGVPSRFSGSGSGTDFTLTINSLQPEDFATYYCQQADSFPLTFGGGTKVEIK
B15: C5A (XPA23) VL S53I (antibody, V domains shown)
VH: EVQLLESGGGLVQPGGSLRLSCAASGFTFSKYFMFWVRQAPGKGLEWVSVISPSGGMTRYADSVKGRFTISRDNSKNTLYLQMNSLRAEDTAVYYCARVGYGGNSDYWGQGTLVTVSS
VL: DIQMTQSPSSVSASVGDRLTIICRASQDINRWLAWYQQTPGNAPKLLIHSATILQSGVPSRFSGSGSGTDFTLTINSLQPEDFATYYCQQADSFPLTFGGGTKVEIK

The target in this test is binding partner of C5A (XPA23). In words: Biacore K-off. A general note: In SPR one partner is held on a chip, and binding of the other changes the refractive index at the surface.
Take B1: the fold difference in affinity vs original was found to be 0.24 fold. In the case of B2 it was 1.42 fold; in that of B3, 0.99 fold. As for B4, the fold difference in affinity vs original came to 1.24 fold. For B5, the fold difference in affinity vs original stood at 1.07 fold. In the case of B6, the fold difference in affinity vs original was 1.03 fold. As for B7, the fold difference in affinity vs original was determined as 0.82 fold. In the case of B8 it was 0.13 fold; in that of B9, 1.05 fold; in that of B10, 0.66 fold. As for B11, the figure is 0.87 fold; as for B12, 1.08 fold. B13: the fold difference in affinity vs original is 0.8 fold. In the case of B14, the fold difference in affinity vs original is 0.78 fold. For the molecule B15, the fold difference in affinity vs original is 1.42 fold.
